Assay results: paper PMC10779054

How the values were obtained:
Taq DNA polymerase = Taq DNA polymerase (Thermus aquaticus, UniProt P19821 1-832); assay: qPCR of aptamer bound to immobilized protein; 50 nM aptamer; 0.5 ug Taq/well; 0.1% methylcellulose, BSA or Tween 20 block; PBS + 0.1% Tween 20 (PBST); 1 h at 21 C (44/70-Taq) or 37 C (NC aptamer-nucleocapsid); wells blocked with 0.1% BSA, Tween 20 or methylcellulose; PBST washes; conditions: protein: commercial
[1] = target: SARS-CoV-2 nucleocapsid protein (SARS-CoV-2, UniProt P0DTC9 1-419); assay: aptamer-immuno-PCR (mAb sandwich, qPCR); PBS + 0.1% Tween 20 (PBST); 1 h at 21 C ([…]) or 37 C ([…]; conditions: protein: commercial; chain copies: 2

Binder | binding result (Taq DNA polymerase) | binding result [1]
44/70 aptamer (ssDNA) DNA: CCTTGAACCTGTGCCATTTGCTAATTGAGACTATTATGGGCTTTTTAGTCGAACAGTAGGAAGATGGAGG | binds | –
NC aptamer (ssDNA) DNA: GCAATGGTACGGTACTTCCGGATGCGGAAACTGGCTAATTGGTGAGGCTGGGGCGGTCGTGCAGCAAAAGTGCACGCTACTTTGCTAA | – | binds
